According to patent publication US20030143232:

Columns and labels:
[1] = biological target: recombinant survivin(T34A) (UniProt O15392)
[2] = biological target: recombinant wild type survivin (unphosphorylated) (UniProt O15392)
recombinant wild type survivin (unphosphorylated), sequence (O15392 whole entry, looked up): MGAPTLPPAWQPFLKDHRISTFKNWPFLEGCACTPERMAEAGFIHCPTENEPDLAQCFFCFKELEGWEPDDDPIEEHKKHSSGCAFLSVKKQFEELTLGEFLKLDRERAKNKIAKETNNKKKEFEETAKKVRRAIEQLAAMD

recombinant survivin(T34A), sequence (O15392 whole entry T34A): as the sequence (O15392 whole entry, looked up) above, with T34A counted along it

| Substance | in vitro kinase assay, 32P autoradiography [1] | in vitro kinase assay, 32P autoradiography [2] |
| --- | --- | --- |
| baculovirus-expressed human Cdk2-cyclin E kinase complex | baculovirus-expressed Cdk2-cyclin E did not phosphorylate wild type survivin or survivin(T34A) | baculovirus-expressed Cdk2-cyclin E did not phosphorylate wild type survivin or survivin(T34A) |
| baculovirus-expressed human p34^cdc2-cyclin B1 kinase complex | substitution of Thr^34→Ala, i.e. survivin(T34A), abolished phosphorylation by p34^cdc2-cyclin B1 | baculovirus-expressed p34^cdc2-cyclin B1 readily phosphorylated recombinant wild type survivin |
